Assay results as given in patent publication US20130310313A1.

What follows are binders tested against insulin receptor (insulin receptor tyrosine kinase assay) (assay: cell-based or functional assay).

activity of insulin receptor tyrosine kinase	Binder
40.3 U/ml	RYKYQWFYI [IRBP-9A (SEQ ID NO:190)]
79.8 U/ml	RYKYQCFYI [IRBP-9B (SEQ ID NO:191)]
44.2 U/ml	RYKYQWWYI [IRBP-9C (SEQ ID NO:192)]
66 U/ml	RYKYQCWYI [IRBP-9D (SEQ ID NO:193)]
